Source: patent US20240294572A1, “Antimicrobial Peptides” (priority 2021, published 2024)

Columns and labels:
[1] = target: T1, apolipoprotein A-I (mouse), Q00623; assay: peptide on Dynabeads, 5% mouse plasma, LC-MS/MS
T1 chain: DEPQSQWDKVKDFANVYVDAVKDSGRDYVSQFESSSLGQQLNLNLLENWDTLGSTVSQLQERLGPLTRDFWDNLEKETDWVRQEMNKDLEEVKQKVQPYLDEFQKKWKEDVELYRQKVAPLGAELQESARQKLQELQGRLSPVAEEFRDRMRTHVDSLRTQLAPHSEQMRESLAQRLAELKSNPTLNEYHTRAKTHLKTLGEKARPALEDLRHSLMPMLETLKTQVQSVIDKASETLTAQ

[2] = target: T2, apolipoprotein A-IV (mouse), P06728; assay: peptide on Dynabeads, 5% mouse plasma, LC-MS/MS
T2 chain: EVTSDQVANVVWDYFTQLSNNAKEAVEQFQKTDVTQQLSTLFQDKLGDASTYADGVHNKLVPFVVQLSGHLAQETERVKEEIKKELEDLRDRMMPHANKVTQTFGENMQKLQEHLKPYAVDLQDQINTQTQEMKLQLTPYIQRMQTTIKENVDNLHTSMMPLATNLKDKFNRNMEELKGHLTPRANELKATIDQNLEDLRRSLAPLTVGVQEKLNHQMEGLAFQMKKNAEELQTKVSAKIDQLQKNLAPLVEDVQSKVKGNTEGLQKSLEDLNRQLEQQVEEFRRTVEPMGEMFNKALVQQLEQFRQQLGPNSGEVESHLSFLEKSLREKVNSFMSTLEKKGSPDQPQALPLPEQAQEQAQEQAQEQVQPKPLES

[3] = target: T3, apolipoprotein C-I (mouse), P34928; assay: peptide on Dynabeads, 5% mouse plasma, LC-MS/MS
T3 chain: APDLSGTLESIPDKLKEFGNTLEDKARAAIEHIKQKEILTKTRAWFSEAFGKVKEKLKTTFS

[4] = target: serum albumin (mouse), P07724; assay: peptide on Dynabeads, 5% mouse plasma, LC-MS/MS
Chain of serum albumin (mouse), P07724 (P07724 25-608 limits assumed): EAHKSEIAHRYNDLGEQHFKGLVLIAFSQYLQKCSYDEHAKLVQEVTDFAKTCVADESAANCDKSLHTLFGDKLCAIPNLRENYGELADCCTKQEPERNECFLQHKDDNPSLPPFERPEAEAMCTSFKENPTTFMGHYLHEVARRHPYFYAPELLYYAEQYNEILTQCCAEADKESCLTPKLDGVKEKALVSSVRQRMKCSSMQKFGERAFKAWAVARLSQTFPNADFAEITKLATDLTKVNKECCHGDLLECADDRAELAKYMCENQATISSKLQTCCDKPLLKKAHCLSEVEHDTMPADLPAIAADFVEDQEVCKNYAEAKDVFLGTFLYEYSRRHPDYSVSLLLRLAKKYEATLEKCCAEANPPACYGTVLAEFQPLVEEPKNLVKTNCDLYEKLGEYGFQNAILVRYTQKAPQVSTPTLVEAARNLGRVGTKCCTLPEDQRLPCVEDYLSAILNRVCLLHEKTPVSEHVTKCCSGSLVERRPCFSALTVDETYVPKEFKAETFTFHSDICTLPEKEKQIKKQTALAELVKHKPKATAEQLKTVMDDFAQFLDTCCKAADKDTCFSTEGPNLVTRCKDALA

[5] = target: T1, apolipoprotein A-I (mouse), Q00623; assay: ratio of MS intensity on L-form beads to that on D-form (C10-KR8d) beads
[6] = target: T2, apolipoprotein A-IV (mouse), P06728; assay: as above
[7] = target: T3, apolipoprotein C-I (mouse), P34928; assay: as above
[8] = target: serum albumin (mouse), P07724; assay: as above

intensity (mass spectrometry) [1]: 4.29e+09 | intensity (mass spectrometry) [2]: 3.21e+08 | intensity (mass spectrometry) [3]: 4.35e+08 | intensity (mass spectrometry) [4]: 3.72e+10 | L/D Ratio [5]: 3.54 | L/D Ratio [6]: 2.89 | L/D Ratio [7]: 2.08 | L/D Ratio [8]: 2.28
B1: C10-KR8 (L-form), with a cysteine at the N-terminus, immobilized on Dynabeads M-370 amine via SM(PEG)4 cross-linker (peptide)
peptide: CKRIWQRIK
modifications: not checked
